According to patent publication US20100015643A1:

Columns and labels:
[1] = molecular target: TLR2 on human monocytes (human) (UniProt O60603); assay: flow cytometry on monocytes of a patient's blood sample, 3 µg/mL PE-labeled control antibody
[2] = molecular target: TLR2 on human monocytes (human) (UniProt O60603); assay: flow cytometry on monocytes, Sample 1, antibody at 1 µg/mL
[3] = molecular target: TLR2 on human monocytes (human) (UniProt O60603); assay: flow cytometry on monocytes, Sample 1, antibody at 3 µg/mL
[4] = molecular target: TLR2 on human monocytes (human) (UniProt O60603); assay: flow cytometry on monocytes, Sample 2, antibody at 1 µg/mL
[5] = molecular target: TLR2 on human monocytes (human) (UniProt O60603); assay: flow cytometry on monocytes, Sample 2, antibody at 3 µg/mL
[6] = molecular target: TLR2 on human monocytes (human) (UniProt O60603); assay: flow cytometry on monocytes, Sample 3, antibody at 1 µg/mL
[7] = molecular target: TLR2 on human monocytes (human) (UniProt O60603); assay: flow cytometry on monocytes, Sample 3, antibody at 3 µg/mL
[8] = molecular target: TLR2 on human monocytes (human) (UniProt O60603); assay: flow cytometry on monocytes, Sample 1, instrument setting FL534
[9] = molecular target: TLR2 on human monocytes (human) (UniProt O60603); assay: flow cytometry on monocytes, Sample 1, instrument setting FL634
[10] = molecular target: TLR2 on human monocytes (human) (UniProt O60603); assay: flow cytometry on monocytes, Sample 2, instrument setting FL534
[11] = molecular target: TLR2 on human monocytes (human) (UniProt O60603); assay: flow cytometry on monocytes, Sample 2, instrument setting FL634
[12] = molecular target: TLR2 on human monocytes (human) (UniProt O60603); assay: flow cytometry on monocytes, Sample 3, instrument setting FL534
[13] = molecular target: TLR2 on human monocytes (human) (UniProt O60603); assay: flow cytometry on monocytes, Sample 3, instrument setting FL634
[14] = molecular target: TLR2 on human monocytes (human) (UniProt O60603); assay: flow cytometry on monocytes of a patient's blood sample, 3 µg/mL PE-labeled antibody
[15] = molecular target: TLR2 on human monocytes (human) (UniProt O60603); assay: flow cytometry on monocytes, MFI of anti-TLR2 antibody minus MFI of control antibody

Chain of UniProt O60603 (O60603 21-784): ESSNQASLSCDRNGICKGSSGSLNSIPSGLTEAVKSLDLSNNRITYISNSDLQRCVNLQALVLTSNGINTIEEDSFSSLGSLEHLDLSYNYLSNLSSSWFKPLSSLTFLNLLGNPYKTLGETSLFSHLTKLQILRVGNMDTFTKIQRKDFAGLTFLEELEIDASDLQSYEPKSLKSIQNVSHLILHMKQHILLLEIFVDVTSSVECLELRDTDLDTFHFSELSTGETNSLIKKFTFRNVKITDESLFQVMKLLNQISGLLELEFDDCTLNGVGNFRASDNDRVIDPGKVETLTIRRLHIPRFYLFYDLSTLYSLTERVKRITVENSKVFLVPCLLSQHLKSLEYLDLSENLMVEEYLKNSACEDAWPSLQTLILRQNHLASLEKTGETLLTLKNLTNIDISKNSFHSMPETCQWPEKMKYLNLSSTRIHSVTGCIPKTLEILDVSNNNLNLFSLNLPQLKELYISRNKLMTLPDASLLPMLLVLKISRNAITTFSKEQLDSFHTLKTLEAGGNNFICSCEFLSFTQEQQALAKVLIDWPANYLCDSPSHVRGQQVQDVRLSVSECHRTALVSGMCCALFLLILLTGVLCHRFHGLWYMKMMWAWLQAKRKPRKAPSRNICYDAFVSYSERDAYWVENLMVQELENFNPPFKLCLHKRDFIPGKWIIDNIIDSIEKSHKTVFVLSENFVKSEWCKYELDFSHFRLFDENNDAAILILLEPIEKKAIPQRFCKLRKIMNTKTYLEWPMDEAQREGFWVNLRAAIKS

PE-labeled control (mouse IgG2a) antibody
MFI [1]: 11.7 MFI

PE-bound anti-TLR2 monoclonal antibody (clone name: T2.1, product of eBioscience)
Delta MFI [2]: 53.7 MFI | Delta MFI [3]: 77.5 MFI | Delta MFI [4]: 54.1 MFI | Delta MFI [5]: 88 MFI | Delta MFI [6]: 40.4 MFI | Delta MFI [7]: 68.7 MFI | Delta MFI [8]: 77.5 MFI | Delta MFI [9]: 286 MFI | Delta MFI [10]: 88 MFI | Delta MFI [11]: 340 MFI | Delta MFI [12]: 68.7 MFI | Delta MFI [13]: 273 MFI | MFI [14]: 104 MFI | Delta MFI [15]: 92.6 MFI
